Results as given in FireProtDB (doi:10.1038/nsb1296-1019).

Conditions: Equus caballus, pH 2, Sodium phosphate 10 mM, KCl 1 M; for denaturant midpoint (higher = more stable) / unfolding free energy: 10 °C, Acid
[1] = Thermal, CD, transition: 3, structure 1AKK

Sequence of Cytochrome c wild type, P00004 (P00004 whole entry): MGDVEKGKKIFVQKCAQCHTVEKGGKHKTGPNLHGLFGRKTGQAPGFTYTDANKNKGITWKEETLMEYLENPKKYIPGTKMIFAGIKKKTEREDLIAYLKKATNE
Sequence of Cytochrome c L95A, P00004 (P00004 whole entry L95A): as the sequence (P00004 whole entry) above, with L95A counted along it
Sequence of Cytochrome c L95V, P00004 (P00004 whole entry L95V): as the sequence (P00004 whole entry) above, with L95V counted along it

| Substance | denaturant midpoint (higher = more stable) (CD) | unfolding free energy (CD) | denaturant midpoint (higher = more stable) (Fluorescence) | unfolding free energy (Fluorescence) | Tm (Thermal, CD, transition: 3) | unfolding enthalpy (van 't Hoff) (Thermal, CD, transition: 3) | denaturant midpoint (higher = more stable) (CD, structure 1AKK) | unfolding free energy (CD, structure 1AKK) | denaturant midpoint (higher = more stable) (Fluorescence, structure 1AKK) | unfolding free energy (Fluorescence, structure 1AKK) | ddG of mutation (higher = less stable) (83 °C, Thermal, CD, transition: 3, structure 1AKK) | Tm [1] | change of melting temperature, mutant - wild type (higher = more stable) [1] | unfolding enthalpy (van 't Hoff) [1] |
| --- | --- | --- | --- | --- | --- | --- | --- | --- | --- | --- | --- | --- | --- | --- |
| Cytochrome c wild type, P00004 | 0.03 M | 4.14 kcal/mol | 0.03 M | 3.54 kcal/mol | 83 °C | 107 kcal/mol | – | – | – | – | – | – | – | – |
| Cytochrome c L95V, P00004 | – | – | – | – | – | – | 0.1 M | 2.59 kcal/mol | 0.08 M | 2.7 kcal/mol | 1.2 kcal/mol | 79 °C | -4 °C | 104 kcal/mol |
| Cytochrome c L95A, P00004 | – | – | – | – | – | – | 0.83 M | 0.1 kcal/mol | 0.3 M | 0.74 kcal/mol | – | – | – | – |
